Experiments:
[1] = biological target: T1, human MSLN-R2-his protein (human, UniProt Q13421 391-486); test: ELISA, coated MSLN-R2;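 note: chimeric antibodies bound to blocked coated plates for 2 h at 37 °C, TMB colour development stopped with HCl, with a negative control antibody for comparison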
T1 construct: Region 2 of human MSLN, His-tagged; also called human MSLN-R2 protein; hMSLN-R2-his; not shown: His tag

[2] = biological target: T2, human MSLN-R3-his protein (human, UniProt Q13421 487-598); test: ELISA, coated MSLN-R3
T2 construct: Region 3 of human MSLN, His-tagged; also called human MSLN-R3 protein; hMSLN-R3-his; not shown: His tag

[3] = biological target: T3, human MSLN-R3-3 polypeptide (human); test: ELISA, coated MSLN-R3-3;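 note: chimeric antibodies in serial dilution bound to plate-coated antigen for 2 h at 37 °C, with a negative control antibody alongside, and TMB colour development stopped with HCl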
T3 construct: also called human MSLN-R3-3 protein; hMSLN-R3-3

[4] = biological target: T4, human MSLN protein endogenously expressed on OVCAR3 tumor cells (human, UniProt Q13421 296-598); test: FACS on OVCAR3 cells;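 note: flow cytometry binding of test antibodies to cells, 2 h incubation on ice, readout as cell mean fluorescence intensity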
T4 construct: whole, on cells; Endogenous target on OVCAR3 cells; kept apart from the recombinant full-length construct; also called mesothelin

[5] = biological target: T5, human MSLN-R3 protein (Met487-Ser606 of NCBI AAH09272.1) expressed on HEK293T-hMSLN-R3 cells (human, UniProt Q13421 487-606); test: FACS on HEK293T-hMSLN-R3 cells;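 note: flow cytometry binding of test chimeric antibodies to cells after 2 h incubation on ice, with values derived from the mean fluorescence intensity of the cells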
T5 construct: also called Region3

[6] = biological target: T6, monkey MSLN full-length protein (NCBI: XP_028696439.1) expressed on HEK293T-monkey MSLN cells (monkey); test: FACS on HEK293T-monkey MSLN cells;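 note: flow cytometry binding of chimeric antibodies to the cells, with a 2 h incubation on ice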
T6 construct: Whole encoded precursor
T6 chain: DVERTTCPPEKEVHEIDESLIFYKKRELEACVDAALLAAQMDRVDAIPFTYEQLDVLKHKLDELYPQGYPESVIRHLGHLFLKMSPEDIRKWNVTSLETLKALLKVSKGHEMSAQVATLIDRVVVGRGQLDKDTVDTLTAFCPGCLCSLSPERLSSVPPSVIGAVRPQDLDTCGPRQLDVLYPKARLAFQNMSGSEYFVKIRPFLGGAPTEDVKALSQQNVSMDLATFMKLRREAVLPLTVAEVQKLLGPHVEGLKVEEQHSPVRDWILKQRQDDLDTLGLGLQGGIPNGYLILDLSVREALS

[7] = biological target: T7, human MSLN-R3 protein expressed on HEK293T cells (HEK293T-hMSLN-R3) (human, UniProt Q13421 487-606); test: FACS on HEK293T-hMSLN-R3 cells;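 note: chimeric antibodies incubated with cells on ice for 2 h, binding read by flow cytometry as mean fluorescence intensity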
T7 construct: C-terminal limit uncertain
T7 sequence (Q13421 495-614): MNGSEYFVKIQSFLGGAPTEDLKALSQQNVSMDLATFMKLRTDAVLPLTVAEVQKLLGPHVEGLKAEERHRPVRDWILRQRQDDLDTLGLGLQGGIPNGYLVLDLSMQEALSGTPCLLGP

T5 sequence (Q13421 495-614): as above
T4 sequence (Q13421 other isoform, or with tags, fused parts or gaps): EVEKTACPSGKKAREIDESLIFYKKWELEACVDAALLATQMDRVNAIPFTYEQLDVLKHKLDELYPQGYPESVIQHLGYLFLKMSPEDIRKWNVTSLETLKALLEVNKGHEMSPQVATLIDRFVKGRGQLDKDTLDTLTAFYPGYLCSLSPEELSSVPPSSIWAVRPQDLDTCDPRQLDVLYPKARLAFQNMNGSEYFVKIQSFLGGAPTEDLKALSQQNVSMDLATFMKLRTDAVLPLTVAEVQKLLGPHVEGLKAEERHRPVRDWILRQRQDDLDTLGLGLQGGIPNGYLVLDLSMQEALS
T1 sequence (Q13421 other isoform, or with tags, fused parts or gaps): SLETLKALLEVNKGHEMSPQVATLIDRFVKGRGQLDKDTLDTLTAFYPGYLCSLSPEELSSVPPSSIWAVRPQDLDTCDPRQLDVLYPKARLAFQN
T2 sequence (Q13421 495-606): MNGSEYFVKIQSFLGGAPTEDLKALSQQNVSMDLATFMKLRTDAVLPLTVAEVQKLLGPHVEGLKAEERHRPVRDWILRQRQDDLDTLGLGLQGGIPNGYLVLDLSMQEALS

B1: S009-F1.25.10 (antibody, human IgG1, kappa, V domains shown)
VH: EVQLQQSGPELVKPGASLKISCKASGYSFTDYTMNWVKQSHGKNLEWIGLFNPYNGGISYNQKFKGKATLTVDKSSNTAYMELLSLTSDDSAVYFCARDGRGGFYAMDYWGQGTSVTVSS
VL: DIQMTQTTSSLSASLGDRVTISCRASQDISIYLNWYQQKPDGPVKLLIYYTSRLHSGVPSRFSGSGSGTDFSLTISNLEQEDIATYFCQQGYTLPPWTFGGGTKLEIKR
notes: Human-murine chimeric antibody, human IgG1/kappa constant regions
- OD450 at 0.0001 nM [1]: 0.04 OD450
- OD450 at 0.001 nM [1]: 0.04 OD450
- OD450 at 0.01 nM [1]: 0.04 OD450
- OD450 at 0.1 nM [1]: 0.04 OD450
- OD450 at 1 nM [1]: 0.04 OD450
- OD450 at 10 nM [1]: 0.05 OD450
- OD450 at 100 nM [1]: 0.05 OD450
- OD450 at none (no antibody) [1]: 0.05 OD450
- OD450 at 0.0001 nM [2]: 0.05 OD450
- OD450 at 0.001 nM [2]: 0.05 OD450
- OD450 at 0.01 nM [2]: 0.09 OD450
- OD450 at 0.1 nM [2]: 0.34 OD450
- OD450 at 1 nM [2]: 1.44 OD450
- OD450 at 10 nM [2]: 2.07 OD450
- OD450 at 100 nM [2]: 2.81 OD450
- OD450 at none (no antibody) [2]: 0.05 OD450
- OD450 at 0.0001 nM [3]: 0.07 OD450
- OD450 at 0.001 nM [3]: 0.13 OD450
- OD450 at 0.01 nM [3]: 0.59 OD450
- OD450 at 0.1 nM [3]: 1.82 OD450
- OD450 at 1 nM [3]: 2.17 OD450
- OD450 at 10 nM [3]: 2.41 OD450
- OD450 at 100 nM [3]: 2.78 OD450
- OD450 at none (no antibody) [3]: 0.07 OD450

B2: S009-F1.35.24 (antibody, human IgG1, kappa, V domains shown)
VH: EVQLQQSEPELVKPGASVRISCKASGYSFTDYYMHWVKQSPENRLEWIGEINPSTGGTSYNPKFKDKATLTVDKSSSTAYMQLKSLTSEESAVYYCTRYHYYGSSSYVMDYWGQGTSVTVSS
VL: QIVLTQSPAILSASPGERVTMTCSASSSVYHMHWFQQKSGTSPKRWVYDTSKLASGVPARFSGSGSGTSYSLTISSMEAEDAATYYCQHWRTNPLTFGAGTKLELKR
notes: as for B1
- OD450 at 0.0001 nM [1]: 0.04 OD450
- OD450 at 0.001 nM [1]: 0.05 OD450
- OD450 at 0.01 nM [1]: 0.05 OD450
- OD450 at 0.1 nM [1]: 0.04 OD450
- OD450 at 1 nM [1]: 0.05 OD450
- OD450 at 10 nM [1]: 0.05 OD450
- OD450 at 100 nM [1]: 0.06 OD450
- OD450 at none (no antibody) [1]: 0.05 OD450
- OD450 at 0.0001 nM [2]: 0.05 OD450
- OD450 at 0.001 nM [2]: 0.05 OD450
- OD450 at 0.01 nM [2]: 0.05 OD450
- OD450 at 0.1 nM [2]: 0.05 OD450
- OD450 at 1 nM [2]: 0.05 OD450
- OD450 at 10 nM [2]: 0.05 OD450
- OD450 at 100 nM [2]: 0.06 OD450
- OD450 at none (no antibody) [2]: 0.05 OD450
- OD450 at 0.0001 nM [3]: 0.07 OD450
- OD450 at 0.001 nM [3]: 0.07 OD450
- OD450 at 0.01 nM [3]: 0.07 OD450
- OD450 at 0.1 nM [3]: 0.08 OD450
- OD450 at 1 nM [3]: 0.07 OD450
- OD450 at 10 nM [3]: 0.07 OD450
- OD450 at 100 nM [3]: 0.15 OD450
- OD450 at none (no antibody) [3]: 0.07 OD450

B3: S009-F7.2.3 (antibody, human IgG1, kappa, V domains shown)
VH: ELQLVESGGDLVKPGGSLKLSCAASGFTFSSNGMSWLRQTPDKRLEWVATISSGGRYTYYPDSVKGRFTISRDNAKNTLYLQMSSLKSEDTAMYYCARRGIYDYFDCWGQGTTLTVSS
VL: DIQMTQSPASLSISVGETVTITCRASENIHSSLAWYQQKQGKSPQLLVYAATNLADGVPSRFSGSGSGSQYSLKINSLQSEDFGTYYCQHFWGTPWTFGGGTKLDIKR
notes: human-murine chimeric antibody, human IgG1/kappa constant regions
- EC50 [4]: 1.74 nM
- Maximum mean fluorescence intensity [4]: 22800
- Maximum mean fluorescence intensity [5]: 33
- binding result [5]: no binding

B4: S009-F7.6.17 (antibody, human IgG1, kappa, V domains shown)
VH: QVQLQQSGAELARPGASVKMSCKASGYTFTTYTMHWVKQRPGQGLEWIGYISPTGDFTKYNQKFKDKATLTTDKSSNTAFMQLSSLTSEDSAVYYCARWNGTVWFAYWGQGTLVTVSA
VL: DIVMTQSQKFMSTSVGDRVTVTCKASQALGTNVAWYQQKPGQSPKVLIYSASYRYSGVPYRFAGGGSGTDFTLTITNVQSEDLAEYFCQQYNNYPLTFGAGTKLELKR
notes: as for B3
- EC50 [4]: 0.99 nM
- Maximum mean fluorescence intensity [4]: 31800
- EC50 [5]: 0.31 nM
- Maximum mean fluorescence intensity [5]: 6420
- EC50 [6]: 0.7 nM
- Maximum mean fluorescence intensity [6]: 56100

B5: S009-F7.11.11 (antibody, human IgG1, kappa, V domains shown)
VH: EVQLQQSGPELVKPGASVKIPCKASGYTITDYNMDWVKQSRGKSLEWIGDVFPYNGDSIYNQKFEGRATLTVDKYSSTAYMELRGLTSEDTAVYFCARRKTGTGYFDVWGTGTTVTVSS
VL: QLVLTQSPAIMSASPGEKVTLTCSASSSVSSTYLSWYLQKPGSSPKLWIYSTSNLASGVPARFSGSGSGTSYSLTISSMEAEDAASYFCHQWSSYPYTFGGGTKLEIKR
notes: as for B3
- EC50 [4]: 0.86 nM
- Maximum mean fluorescence intensity [4]: 31800
- EC50 [5]: 0.28 nM
- Maximum mean fluorescence intensity [5]: 6260
- EC50 [6]: 0.41 nM
- Maximum mean fluorescence intensity [6]: 49500

B6: S009-F7.12.13 (antibody, human IgG1, kappa, V domains shown)
VH: EVQLQQSGPELVKPGASVKIPCKASGYTFTDYNMDWVKQSHGKGLEWIGDINPNTDDTIYNQKFNGKATLTVDKSSSTAYMELRSLTSEDTAVYYCSRRLIGTGYFDVWGTGTTVTVSS
VL: QIVLTQSPAIMSASPGEKVTLTCSASSSVISTYLCWYRQKPGSSPELWIYSTSNLASGVPARFSGSGSGTSYSLTISSMEAEDAASYFCHQWSNYPYTFGGGTKLGMKR
notes: as for B3
- EC50 [4]: 0.32 nM
- Maximum mean fluorescence intensity [4]: 21400
- EC50 [5]: 0.12 nM
- Maximum mean fluorescence intensity [5]: 6610
- EC50 [6]: 6.34 nM
- Maximum mean fluorescence intensity [6]: 7630

B7: S009-F7.18.10 (antibody, human IgG1, kappa, V domains shown)
VH: QVQLQQSGAELVRPGTSVKVSCKASGYAFTNYLIEWVKQRPGQGLEWIGVINPGSGGTKYNEKFKGKATLTADKSSSTAYMQLSSLTSEDSAVYFCASDYDYDPFAYWGQGTLVTVSA
VL: DIVMTQSHKFMSTSVGDRVSITCKASQDVSTAVAWYQRKPGQSPKLLIYWASTRHTGVPDRFTGSGSGTDYTLTISYMQAEDLALYYCQQHYSTPYTFGGGTKLEIKR
notes: as for B3
- EC50 [4]: 3.29 nM
- Maximum mean fluorescence intensity [4]: 29900
- Maximum mean fluorescence intensity [5]: 39
- binding result [5]: no binding
- EC50 [6]: 0.47 nM
- Maximum mean fluorescence intensity [6]: 50600

B8: S009-F7.21.16 (antibody, human IgG1, kappa, V domains shown)
VH: QVQLQQPGTELVKPGASVKLSCKASGYTFTTFWMHWVKQRPGQGLEWIGGVNPTNGGTNYNEKFRTKATLTVDKSSTTADMQLSSLTSEDSAVYYCAPHYISSRPGFAYWGQGTLVTVSG
VL: DIVMTQSQKFMSTSGGDRVSVTCKASQNVGTNVAWYQQKPGQSPKALIYSASYRYSGVPDRFTGSGSGTDFILTISNVQSEDLAEYFCQQYNSYPLTFGGGTKLEIKR
notes: as for B3
- EC50 [4]: 0.52 nM
- Maximum mean fluorescence intensity [4]: 32600
- EC50 [5]: 0.16 nM
- Maximum mean fluorescence intensity [5]: 6820
- EC50 [6]: 0.3 nM
- Maximum mean fluorescence intensity [6]: 50900

B9: S009-F7.23.19 (antibody, human IgG1, kappa, V domains shown)
VH: EVKLVESGGGLVQPGGSLSLSCAASGFTFTDYYMSWVRQPPGKALEWLGFIRSKANAYTTEYSASVKGRFTISRDNSQSILYLQMNDLRAEDSATYYCARYYYYGSGYVWYFDVWGTGTTVTVSS
VL: DIVMTQSQKFMSTSVGDRVSVTCKASQSVGTNVAWYQQKPGQFPKALIYSASYRYSGVPDRFTGSGSGTDFTLTIINVQSEDLAEYFCQQYNSYPLTFGAGTKLELKR
notes: as for B3
- EC50 [4]: 0.15 nM
- Maximum mean fluorescence intensity [4]: 29300
- EC50 [5]: 0.05 nM
- Maximum mean fluorescence intensity [5]: 6570
- EC50 [6]: 0.13 nM
- Maximum mean fluorescence intensity [6]: 54300

B10: Tab106 (YP218, hIgG1) (antibody, V domains shown)
VH: QQQLEESGGGLVKPEGSLTLTCKASGFDLGFYFYACWVRQAPGKGLEWIACIYTAGSGSTYYASWAKGRFTISKASSTTVTLQMTSLAAADTATYFCARSTANTRSTYYLNLWGPGTLVTVSS
VL: DVVMTQTPASVSEPVGGTVTIKCQASQRISSYLSWYQQKPGQRPKLLIFGASTLASGVPSRFKGSGSGTEYTLTISDLECADAATYYCQSYAYFDSNNWHAFGGGTEVVVRT
notes: control antibody; YP218 VH and VL in human IgG1 CH and CL vectors; also called YP218 human IgG1 antibody
- EC50 [7]: 1 nM
- Maximum mean fluorescence intensity [7]: 24500

Source: US20250250357A1 (NANJING ZAIMING PHARMACEUTICAL, published 2025)
